# Results as given in the DeepSol protein solubility set.
# Test: soluble on expression in E. coli; label from the status in PepcDB or PDB records
row,Sequence,soluble on expression in E. coli
1,MFRLRLISGFNFAPIIADAIVDLSKDFFQSDNSEVCCGQILYLAISDEEGPGKPILDSKHVEVILTLDLPEDMDVYEKFGLSAYRQHILLRITQEARDQNALLTIKDLVKLLKSSYSTIIRDLKYFREKGLYVPLRGIVKDIGPSSHKSKIVELYLKGYTTTEIQRSTRHSLQSIERYIKDFSRVSILTQKGESIDNIRLIVGISERLVKEYQELFIKYKDGDNKQRVEELIDNITVYDSPMSFKKNSGMRM,not soluble
2,MAHHHHHHMKKLHQERGGNPMLAQQARRVLFATSITGQNIDARSIALLLNTAVYFGMESDARVVRECIDFCLKNDKFISLDIMPIVVTACATLQSRDAREVIELQAIKATRNARFLDAKGVTNVISAFSKTGINHEKLFGLLSMRVQTLARVGEFEAAHLVILANAFARLRFREQHVFSAIARRAMSLRERVTVNELVPLINAFSKAGLKDPKLSKRFAGKAMEYVDQMNAEQVALMFQAFAYFGIRYDQLFGVLTNRAVELIDEFNAQYISTTLASFQRIGINNPELFDNLAERALAVVQDHDAKDIALTVTALAHFGLKDEELFKRLASHAASIADQFDPVGLVNTIHAFARTFFLQEDMVVALSERCVYVCRHLDANQVRRLLWSLAKFQVKDPRILTPVFNRCLTLHQDFFSDPMGGEEIEEIFDVFGPSFCPPLYQLYMSRGNSV,not soluble
3,MSTYDTAVLDDTLVSCLSQLIGAEHIDTLTLEGRFEITRIAAALSGRPGPAPRAILMSGLQGSGKTTLARALEAAGFRRLCPDEEMFRRYGHYGRDFPRGEFRVREAPVLKDIALELQELLTAGHEVVVDHGFWTREERAQWAMTVMEAGGKPVLIYLPVPHEVRWDRIRKRNEQSLVDANSIEFSEEDLLRHAGRFSPPTDDEPHIVYDGQPDSVLADIQLSRHFDALEHHHHHH,not soluble
4,MLNVGATAPDFTLRDQNQQLVTLRGYRGAKNVLLVFFPLAFTGICQGELDQLRDHLPEFENDDSAALAISVGPPPTHKIWATQSGFTFPLLSDFWPHGAVSQAYGVFNEQAGIANRGTFVVDRSGIIRFAEMKQPGEVRDQRLWTDALAALTA,soluble
5,MAHHHHHHMATLQVRDFDPRTATHYYHCILAGIPHPVTLQSISSAIVPDSECESVQNLEKIGCQIVPYRLHVFKETLSLKFGVVDFFIHHSTSGESANPAEVHELFLQWFGSSLTRGVMSLNSWISLGQPRELHSATPFVSALMEKCSFFDAKVVSDIEKLRTFILSKVRFDNRGLNAHANNRSRVAASEDSSLQEEQTRTDCGNDPSVEWKSVGTLSASSLDSQELAWLSRQHRQFPSIAPANEREASATWELEPVRTFLQKALTPLVEVVK,not soluble
6,MTQTNNRLFDEIGRLMNDAAGAAQGVKREIDGVVRSQAEKILRDLDLVKREEFEAFKEMVRLTREENEALKARIAALEARQGGGSEPPTALA,not soluble
7,MTLTAQKNSWWVGAHAGREYFNNTSEDMKKGWNTGVVLRYYFSDRIYSLATLNYGFASSLSPSGYFDELGNSPNARFRRHSILPAVGLGYEFFQGDFYSCYAQGGVGYGMEYNSVSYPQEYDVSVKRFGWLAELGGDYFLRDNLSLGISVAHLRVGWRNNWTANVKLSICLL,not soluble
8,MGSDKIHHHHHHVAKPKTVYICSECGGQSPKWAGQCPSCNAWNTLVESVAEAPSTHRFQSLAKSAPVRRLADIEASDVPRFTTGVSEFDRVLGGGLVPGGVVLIGGDPGIGKSTLLLQSLAEIAADKRALYISGEESAAQIALRAQRLSLLEPGSRASELQLLAEIQLEKIQATIAEQRPDVAVIDSIQTVYSDALTSAPGSVAQVRECAAQLTRIAKQSGTTIIMVGHVTKEGALAGPRVLEHIVDTVLYFEGDTHSSYRLVRAIKNRFGAVNELGVFAMTERGLRGVANPSALFLSQHEQSVAGSCVLVTQEGTRPLLVEVQALVDAANAPNPRRLAVGLEQNRLAMLLAVLHRHAGIACFDQDVFLNAVGGVKITEPAADLAVLLAIHSSMRNKPLPKGLVVFGEVGLAGEIRPSPRGQERLKEAAKLGFSVAVIPRANAPKQPIEGLQVVAVERIEQAIDRVRTLE,not soluble
9,MSLNYIEDIKNYIPFNEQEERDKELFLRCLNDFHDILTRDNTIAHLTSSAFAVNKERNKFLMIHHNIYNSWAWTGGHSDNEKDQLKVAIKELKEETGVKNPTPLLDKAFALDVLTVNGHIKRGKYVSSHLHLNLTYLIECSEDETLMLKEDENSGVMWIPFNEISKYCSEPHMIPIYEKLINKLKTQSKEGHHHHHH,soluble
10,MQRIIKNNEVIDETWHLLPKDTTLDSLSNCDDLIVPLALWREHAHALKARDGGLGVWLDSDEEAEEIGEDVDQFQVIALNFPAFTDGRSFSNARLLRDRYGFKGELRAIGDVLRDQLFYMRRCGFDAFAVRADKDPYDALEGLKDFSVTYQAATDEPLPLFRRR,not soluble
11,MGSDKIHHHHHHMADMTDQLPEVRKSHPYVMYEMMKDIPNGIDRTLSSMQNADLSFIGDDLIFLGNGTAYHSAYVGSQILDRVSKRHAVVQAYEYLNYMQSNAATIAISHTGKTKSTVDAVIKARKTAKTAGITHYADSPLYNSVDYPIAIADEDKSLCNTKAFFNNAFASLYIADYYGNLSYDMKNLRSEIAKHVGKDDPEMRSAAEELDQIDDIFVLGSGFNFPVAREAAQKIKEATHIHAEGIEFEEFNHGCTAVMDENTLVILIEGEKDRARGDQIARASRYVGSKTLAINGVGDISVYNDPQDDLSAAFLNTLDLYYLAYYLAVRRNINPDMLRFEDRRYRDYDSVVFPPGEH,not soluble
12,SNAMTGTLLSFGHGYTARVLSRALAPQGWRIIGTSRNPDQMEAIRASGAEPLLWPGEEPSLDGVTHLLISTAPDSGGDPVLAALGDQIAARAAQFRWVGYLSTTAVYGDHDGAWVDETTPLTPTAARGRWRVMAEQQWQAVPNLPLHVFRLAGIYGPGRGPFSKLGKGGIRRIIKPGQVFSRIHVEDIAQVLAASMARPDPGAVYNVCDDEPVPPQDVIAYAAELQGLPLPPAVDFDKADLTPMARSFYSENKRVRNDRIKEELGVRLKYPNYRVGLEALQADAET,soluble
13,MTLISRIKQLAQSKQLTLAQLERNVGISNGQIRRWDTSSPKVENLLKIADYFSVSLDYLMGRTQQTEINHQAPMKSTQKELHIHITTEELTEEEITQLEEEANRFLRFRKFEMTNS,not soluble
14,LVRGGWLWRQSSILRRWKRNWFALWLDGTLGYYHDETAQDEEDRVVIHFNVRDIKVGQECQDVQPPEGRSRDGLLTVNLREGSRLHLCAETRDDAIAWKTALMEANSTPAPAGATVP,soluble
15,MAHHHHHHMGTLEAQTQGPGSMQYPPRLGFGTWQAPPEAVQTAVETALMTGYRHIDCAYVYQNEEAIGRAFGKIFKDASSGIKREDVWITSKLWNYNHRPELVREQCKKTMSDLQVDYLDLFLVHWPLAFVRNDVGDLFPKDAEGRAMLEKVPLADTWRAMEQLVEEGLVKHIGVSNYTVPLLADLLNYAKIKPLVNQIEIHPWHPNDATVKFCLDNGIGVTAYSPMGGSYADPRDPSGTQKNVILECKTLKAIADAKGTSPHCVALAWHVKKWNTSMYSVIPKSQTPARIEANFKCTEVQLSDDDMDAINNIHLNKRIRFCDPAIFWKVPLFD,soluble
16,MLQVRVKPGVEDRIRGFFPWVYRSEIASFSRKPKKGEIVVVRDVNGKFLGYGYINPEVNIAIRILSFDKNEPVTPELIRKRIKQAYEYRKRLYINSNAYRLVHSEGDLLPGLIVDVYGSYLAVEFTTYGMNQFREVILDTLVELLRPKGIYEKVNEIAKRVEGLDVEERVIYGEVPEEVIIWEHDLKYYINIPQGQKTGFFLDQRNARKFVRNLVEPGDRCLDVFCHTGGFALNMKRAGAGEVIGVDISELALKEAEKNARLNGFTDIKWVKANAFDYLRELDKKGEKFDVIIIDPPSFAKNRAAVPNALRGYKELCVRGLKIAKSGGYLAIFSCSFHITEQHLLDVLLQASYDVRRQVRVIAKTFQDLDHPWILQMPNTLYLKGVWVEVV,soluble
17,MGSDKIHHHHHHVSDLLSQDEIDALLHGVDDVEEEEVSDALDARAYDFSSQDRIVRGRMPTLEIVNERFARHLRISMFNMMRRAAEVSINGVQMLKFGEYVHTLFVPTSLNMVRFSPLKGTALITMEARLVFILVDNFFGGDGRFHAKIEGREFTPTERRIVQLLLKIIFEDYKEAWAPVMDVEFDYLDSEVNPAMANIVSPTEVVVVSSFHIEVDGGGGDFHITMPYSMIEPIRELLDAGVQSDTQDTDMRWSQALKDEIMDVEVGLDATIVEKEISLKDVMGFKAGDIIPVEMPEYIVLRVEDLPTYRCKLGRSRENLALNIREKIPRPETVKTELQLVTKKSKSRDLNNI,not soluble
18,GSLQDNSSYPDEPWRITEEQREYYVNQFRSLQPDPSSFISGSVAKNFFTKSKLSIPELSYIWELSDADCDGALTLPEFCAAFHLIVARKNGYPLPEGLPPTLQPEFIVTD,soluble
19,MAHHHHHHMEGQSELVERVVRMQLTSPDFAEYCVAHVTDPKHRFLFSRNEDEAERRLYVRLLEGRGHQKRAETPAVVAPAFAPERTSSLMTHGGTAVLWMSLLDYFSSTPGVRGPHMPHMFRTEADLTAFVDMLDGAQREHVSLEDVVQFMLRRLPMTEVFLYVLCYMCDVRIHEVRRETRRRSSGACVTDSADGASDEKKLQAAGTLLFIANMLLLQHDALERPLRYLSVFEFYMQRMVEALAGTVPKNSPVDTFLRETVMVWSEGHVFGEEALDCMKRAIGCSLG,not soluble
20,MGRIKQGLDYFPLSTDFMHDRIVRRVMKREGDSAFTVLIYIMSYLYSGEGYYVRADTDFCDELSDQLFSTDNDTVRRVIRLFLEYGLFDSALYERYSILTSEDVQRQYLFITKRRSRHHICPDYCLLPEEKTTDEQPDTVAATGENVAVSPNIATASRDTATKTALIKRKEKEKKENIFPNPPFAKGGDEEEGSEGEKVAEGAGGGMREECDQRSATRKRNLTQEDIDRMQVPPDGCPRNFSGLLENLRLFRVPPAEQYAIVLKSNYGEIGGDIWKGFSVIRGSGGKIKLPGHYLLSVLNK,not soluble
21,SKLDSYTHLSFYEKRELFRKKLREIEGPEVTLVNEVDDEPCPSLDFQFISQYRLTQGVIPPDPNFQSGCNCSSLGGCDLNNPSRCECLDDLDEPTHFAYDAQGRVRADTGAVIYECNSFCSCSMECPNRVVQRGRTLPLEIFKTKEKGWGVRSLRFAPAGTFITCYLGEVITSAEAAKRDKNYDDDGITYLFDLDMFDDASEYTVDAQNYGDVSRFFNHSCSPNIAIYSAVRNHGFRTIYDLAFFAIKDIQPLEELTFDYAGAKDFSPVQSQKSQQNRISKLRRQCKCGSANCRGWLFG,soluble
22,MSKSLKKLVEESREKNQPEVDMSDRGISNMLDVNGLFTLSHITQLVLSHNKLTMVPPNIAELKNLEVLNFFNNQIEELPTQISSLQKLKHLNLGMNRLNTLPRGFGSLPALEVLDLTYNNLSENSLPGNFFYLTTLRALYLSDNDFEILPPDIGKLTKLQILSLRDNDLISLPKEIGELTQLKELHIQGNRLTVLPPELGNLDLTGQKQVFKAENNPWVTPIADQFQLGVSHVFEYIRSETYKYLYGRHMQANPEPPKKNNDKSKKISRKPLAAKNR,not soluble
23,MGSDKIHHHHHHMTWLPLNPIPLKDRVSMIFLQYGQIDVIDGAFVLIDKTGIRTHIPVGSVACIMLEPGTRVSHAAVRLAAQVGTLLVWVGEAGVRVYASGQPGGARSDKLLYQAKLALDEDLRLKVVRKMFELRFGEPAPARRSVEQLRGIEGSRVRATYALLAKQYGVTWNGRRYDPKDWEKGDTINQCISAATSCLYGVTEAAILAAGYAPAIGFVHTGKPLSFVYDIADIIKFDTVVPKAFEIARRNPGEPDREVRLACRDIFRSSKTLAKLIPLIEDVLAAGEIQPPAPPEDAQPVAIPLPVSLGDAGHRSS,not soluble
